According to patent US10280205B2, “Method for treating cancer with an activated T lymphocyte that selectively recognizes a cancer cell consisting of specific peptide” (immatics biotechnologies GmbH, priority 2015, dated 2019):

molecular target: HLA-A*02:01 (Homo sapiens, UniProt P04439, D140Y/D185E/D98H/E176V/E277Q/G131W/G231S/I119V/I121R/I166T/I218V/L300P/L318F/N151K/N90K/P208A/P217A/Q86G/Q94H/R138H/R169H/T345S); experiment: MHC binding assay: UV-ligand exchange with beta2m ELISA (exchange yield); details: binding to HLA-A*02:01, β2m ELISA
Outline: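 Peptide–HLA-A*02:01 complexes formed by UV-induced exchange of a photocleavable ligand for the test peptide. Exchange products diluted 100-fold and captured on streptavidin-coated plates. Stabilized complexes detected with HRP anti-β2m (1 h, 37° C.) and TMB, A450; exchange yield reported.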

Substance | Peptide exchange (MHC class I binding score, peptide exchange yield)
172 (VLYSYTIITV; listed as Homo sapiens) [compound 172] | “++” (≥20% = ++)
251 (ALYTGFSILV; listed as Homo sapiens) [compound 251] | “++” (≥20% = ++)
94 (YLIDIKTIAI; listed as Homo sapiens) [compound 94] | “++” (≥20% = ++)
501 (LLDPNVKSIFV; listed as Homo sapiens) [compound 501] | “+++” (≥50 = +++)
512 (SLSEIVPCL; listed as Homo sapiens) [compound 512] | “+++” (≥50 = +++)
440 (ALADGVTMQV; listed as Homo sapiens) [compound 440] | “++” (≥20% = ++)
586 (KLKPGDLVGV; listed as Homo sapiens) [compound 586] | “+++” (≥50 = +++)
434 (KVSNSGITRV; listed as Homo sapiens) [compound 434] | “++” (≥20% = ++)
597 (KLLEGQVIQL; listed as Homo sapiens) [compound 597] | “+++” (≥50 = +++)
296 (FMEGAIIYV; listed as Homo sapiens) [compound 296] | “+++” (≥50 = +++)
149 (NLLELFVQL; listed as Homo sapiens) [compound 149] | “+++” (≥50 = +++)
554 (LLMPSSEDLLL; listed as Homo sapiens) [compound 554] | “+++” (≥50 = +++)
215 (QLINHLHAV; listed as Homo sapiens) [compound 215] | “+++” (≥50 = +++)
183 (FGLDLVTEL; listed as Homo sapiens) [compound 183] | “+++” (≥50 = +++)
216 (NLWEDPYYL; listed as Homo sapiens) [compound 216] | “+++” (≥50 = +++)
553 (SLLNQDLHWSL; listed as Homo sapiens) [compound 553] | “++++” (≥75% = ++++)
464 (ALNDCIYSV; listed as Homo sapiens) [compound 464] | “+++” (≥50 = +++)
310 (FLVDTPLARA; listed as Homo sapiens) [compound 310] | “++++” (≥75% = ++++)
475 (LLLNEEALAQI; listed as Homo sapiens) [compound 475] | “+++” (≥50 = +++)
386 (ILFRYPLTI; listed as Homo sapiens) [compound 386] | “+++” (≥50 = +++)
176 (YLMEGSYNKVFL; listed as Homo sapiens) [compound 176] | “++” (≥20% = ++)

Substance | Peptide exchange (MHC class I binding score, peptide exchange yield)
122 (FLLAEDDIYL; listed as Homo sapiens) [compound 122] | “+++” (≥50 = +++)
214 (FLLDLDPLLL; listed as Homo sapiens) [compound 214] | “+++” (≥50 = +++)
230 (ILVDWLVEV; listed as Homo sapiens) [compound 230] | “+” (≥10% = +)
427 (ALLPLSPYL; listed as Homo sapiens) [compound 427] | “+++” (≥50 = +++)
388 (SLTIDGIRYV; listed as Homo sapiens) [compound 388] | “+++” (≥50 = +++)
519 (GLLHLTLLL; listed as Homo sapiens) [compound 519] | “+++” (≥50 = +++)
437 (SMAPGLVIQAV; listed as Homo sapiens) [compound 437] | “+++” (≥50 = +++)
498 (KLWTGGLDNTV; listed as Homo sapiens) [compound 498] | “+++” (≥50 = +++)
134 (YLQELIFSV; listed as Homo sapiens) [compound 134] | “+++” (≥50 = +++)
25 (FLPDEPYIKV; listed as Homo sapiens) [compound 25] | “+++” (≥50 = +++)
571 (LLLTTIPQI; listed as Homo sapiens) [compound 571] | “+++” (≥50 = +++)
350 (ALLDVTHSELTV; listed as Homo sapiens) [compound 350] | “+++” (≥50 = +++)
513 (SLWPSPEQL; listed as Homo sapiens) [compound 513] | “++” (≥20% = ++)
407 (YLMDLINFL; listed as Homo sapiens) [compound 407] | “+++” (≥50 = +++)
238 (YLISFQTHI; listed as Homo sapiens) [compound 238] | “+++” (≥50 = +++)
606 (ALWETEVYI; listed as Homo sapiens) [compound 606] | “+++” (≥50 = +++)
494 (ALQPEPIKV; listed as Homo sapiens) [compound 494] | “++” (≥20% = ++)
279 (ALWGGTQPLL; listed as Homo sapiens) [compound 279] | “++” (≥20% = ++)
187 (RQISIRGIVGV; listed as Homo sapiens) [compound 187] | “+++” (≥50 = +++)
465 (QLCDLNAEL; listed as Homo sapiens) [compound 465] | “+++” (≥50 = +++)
102 (YLFESEGLVL; listed as Homo sapiens) [compound 102] | “+++” (≥50 = +++)

Substance | Peptide exchange (MHC class I binding score, peptide exchange yield)
5 (HLTEVYPEL; listed as Homo sapiens) [compound 5] | “+++” (≥50 = +++)
177 (YLLPEEYTSTL; listed as Homo sapiens) [compound 177] | “++++” (≥75% = ++++)
299 (YLLETSGNL; listed as Homo sapiens) [compound 299] | “+++” (≥50 = +++)
185 (FLIDDKGYTL; listed as Homo sapiens) [compound 185] | “++” (≥20% = ++)
63 (YLLPSGGSVTL; listed as Homo sapiens) [compound 63] | “++” (≥20% = ++)
85 (KMSELRVTL; listed as Homo sapiens) [compound 85] | “+++” (≥50 = +++)
362 (TLYGLSVLL; listed as Homo sapiens) [compound 362] | “+++” (≥50 = +++)
19 (FMVDNEAIYDI; listed as Homo sapiens) [compound 19] | “++++” (≥75% = ++++)
547 (TLDITPHTV; listed as Homo sapiens) [compound 547] | “+++” (≥50 = +++)
515 (LLQELVLFL; listed as Homo sapiens) [compound 515] | “+++” (≥50 = +++)
254 (TLLAFIMEL; listed as Homo sapiens) [compound 254] | “+++” (≥50 = +++)
297 (VLADIELAQA; listed as Homo sapiens) [compound 297] | “+++” (≥50 = +++)
453 (KLLEATSAV; listed as Homo sapiens) [compound 453] | “++” (≥20% = ++)
486 (AVMESIQGV; listed as Homo sapiens) [compound 486] | “+++” (≥50 = +++)
312 (IISDLTIAL; listed as Homo sapiens) [compound 312] | “+++” (≥50 = +++)
62 (VLLDVSAGQLLM; listed as Homo sapiens) [compound 62] | “++++” (≥75% = ++++)
448 (NLLETKLQL; listed as Homo sapiens) [compound 448] | “+++” (≥50 = +++)
133 (KVLSNIHTV; listed as Homo sapiens) [compound 133] | “++” (≥20% = ++)
198 (KTINKVPTV; listed as Homo sapiens) [compound 198] | “+++” (≥50 = +++)
